Ten molecules from patent US20210139581A1 (Alector, published 2021) can be followed below.

For experiment [1], the target named is T1, human CD33 (human, UniProt P20138 18-259, limits assumed).
T1 construct: Human CD33 immobilized on the BLI sensor tip or the BIAcore C1 chip; also called Siglec-3
Put plainly: BLI (ForteBio), Fab 100 nM on immobilized CD33; kon/koff columns printed 3 rows too low, assigned by koff/kon = printed KD of AB-63.4. Here is the method: (§1) The affinities (KD) of the humanized antibodies for human CD33 were measured for each antibody by BioLayer Interferometry in a ForteBio assay according to standard techniques (Estep et al. (2013) MAbs 5(2): 270-8). […] The assay was carried out at room temperature.
(§2) The affinities of AB-H14 and its affinity-matured variants (Table 15) and AB-H63 and its affinity-matured variants (Table 16), for human CD33 were measured by Fortebio assay according to the method described in Example 1 above.
For orientation: BLI is a label-free optical method that tracks binding on a fibre tip over time.

Experiment [2] deals with human CD33 on primary human monocyte-derived dendritic cells (human, UniProt P20138 18-364). Put plainly: cell-based or functional assay.
Sequence of human CD33 on primary human monocyte-derived dendritic cells (P20138 18-364): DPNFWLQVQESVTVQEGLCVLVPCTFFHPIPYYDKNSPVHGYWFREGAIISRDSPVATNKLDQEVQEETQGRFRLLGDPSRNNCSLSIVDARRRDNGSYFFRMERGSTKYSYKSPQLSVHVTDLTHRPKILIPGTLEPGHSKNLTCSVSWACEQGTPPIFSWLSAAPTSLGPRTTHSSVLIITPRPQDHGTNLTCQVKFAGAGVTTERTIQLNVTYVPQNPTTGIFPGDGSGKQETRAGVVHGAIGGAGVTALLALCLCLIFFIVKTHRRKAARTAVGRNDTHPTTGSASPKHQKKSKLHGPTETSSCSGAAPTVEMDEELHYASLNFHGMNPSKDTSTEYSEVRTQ
The target of experiment [3] is T1, human CD33. Put plainly: BLI (ForteBio), Fab 100 nM on immobilized CD33.
In experiment [4] the target is T1, human CD33. Put plainly: BLI (ForteBio), Fab 100 nM on immobilized CD33; kon/koff columns printed 3 rows too low, assigned by koff/kon = printed KD of AB-63.8. Here is the method:
as §1, §2

In experiment [5] the target is T1, human CD33. Put plainly: BLI (ForteBio), Fab 100 nM on immobilized CD33; kon/koff columns printed 3 rows too low, assigned by koff/kon = printed KD of AB-63.6. Here is the method:
as §1, §2

Experiment [6] deals with T1, human CD33. The experiment can be described thus: BLI (ForteBio), Fab 100 nM on immobilized CD33; kon/koff columns printed 3 rows too low, assigned by koff/kon = printed KD of AB-63.10. Here is the method: as §1, §2
The target of experiment [7] is T1, human CD33. Put plainly: BLI (ForteBio), Fab 100 nM on immobilized CD33; kon/koff columns printed 3 rows too low, assigned by koff/kon = printed KD of AB-63.12. Here is the method: as §1, §2
In experiment [8] the target is T1, human CD33. Put plainly: BLI (ForteBio), Fab 100 nM on immobilized CD33; kon/koff columns printed 3 rows too low, assigned by koff/kon = printed KD of AB-63.11. Here is the method: as §1, §2
Experiment [9] addresses T1, human CD33. Put plainly: BLI (ForteBio), Fab 100 nM on immobilized CD33; kon/koff columns printed 3 rows too low, assigned by koff/kon = printed KD of AB-63.7. Here is the method:
as §1, §2

The target in experiment [10] is T1, human CD33. The experiment can be described thus: BLI (ForteBio), Fab 100 nM on immobilized CD33; kon/koff columns printed 3 rows too low, assigned by koff/kon = printed KD of AB-63.9. Here is the method: as §1, §2
Experiment [11] has as its target T1, human CD33. Put plainly: BLI (ForteBio), Fab 100 nM on immobilized CD33; kon/koff columns printed 3 rows too low, assigned by koff/kon = printed KD of AB-63.5. Here is the method: as §1, §2
Experiment [12] addresses T1, human CD33. Put plainly: BLI (ForteBio), Fab 100 nM on immobilized CD33; kon/koff columns printed 3 rows too low, assigned by koff/kon = printed KD of AB-63.13. Here is the method:
as §1, §2

T1 sequence (P20138 18-259 limits assumed): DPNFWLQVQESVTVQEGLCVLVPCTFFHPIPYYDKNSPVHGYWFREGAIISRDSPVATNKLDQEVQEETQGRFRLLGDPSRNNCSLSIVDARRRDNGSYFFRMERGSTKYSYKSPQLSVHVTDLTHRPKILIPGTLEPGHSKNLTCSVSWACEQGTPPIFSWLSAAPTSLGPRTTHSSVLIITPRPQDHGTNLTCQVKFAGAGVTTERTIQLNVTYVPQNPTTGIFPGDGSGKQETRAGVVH

B1: AB-63.4 (antibody, V domains shown)
VH: QVQLVQSGAEVKKPGASVKVSCKASGYTFTDYNYHWVRQAPGQGLEWIGFIYPSNGITGYAQKFQGRVTMTVDTSTSTVYMELSSLRSEDTAVYYCARSTVDYFDYWGQGTLVTVSS
VL: DIVLTQSPDSLAVSLGERATINCRASQSVSTSTYSYMHWYQQKPGQPPKLLIKYASNLESGVPDRFSGSGSGTDFTLTISSLQAEDVAVYYCQHSWEIPLTFGQGTKLEIK
In experiment [1], B1 yielded an off-rate constant (koff) of 0.000581 s⁻¹ and a kon of 809000 M⁻¹ s⁻¹. Further, in experiment [2], the “Maximal Downregulation (% CD33 remaining)” value turned out to be 17.6% and the “Receptor downregulation (EC50)” value amounted to 0.0691 nM. In addition, in experiment [3], the “Fold affinity improvement over parental Ab (AB-H63)” value (shortened to “Fold affinity improvement”) amounted to 3.79 fold and the equilibrium dissociation constant (Kd) worked out at 0.718 nM.

B2: AB-63.8 (antibody, V domains shown)
VH: QVQLVQSGAEVKKPGSSVKVSCKASGVTFTDYNYHWVRQAPGQGLEWIGFIYPSNGITGYAQKFQDRVTMTVDTSTSTVYMELSSLRSEDTAVYYCARSTVDYFDYWGQGTLVTVSS
VL: DIVLTQSPDSLAVSLGERATINCRASQDVSTSTYSYMHWYQQKPGQPPKLLIKYASNLESGVPDRFSGSGSGTDFTLTISSLQAEDVAVYYCQHSWEIPLTFGQGTKLEIK
As to B2, in experiment [2], the “Maximal Downregulation (% CD33 remaining)” value amounted to 22% and the “Receptor downregulation (EC50)” value worked out at 0.0167 nM. In [4], this molecule yielded an off-rate (koff) of 0.0002 s⁻¹ and a kon of 913000 M⁻¹ s⁻¹. Further, in experiment [3], the “Fold affinity improvement” value is 12.4 fold and the equilibrium dissociation constant (Kd) is 0.219 nM.

B3: AB-63.6 (antibody, V domains shown)
VH: QVQLVQSGAEVKKPGASVKVSCKASGYTFTDYNLHWVRQAPGQGLEWIGFIYPSNGITGYAQKFQGRVTMTVDTSTSTVYMELSSLRSEDTAVYYCARSTVDYFDYWGQGTLVTVSS
VL: DIVLTQSPDSLAVSLGERATINCRASQDVSTSTYSYMHWYQQKPGQPPKLLIKYASNLESGVPDRFSGSGSGTDFTLTISSLQAEDVAVYYCQHSWEIPLTFGQGTKLEIK
Consider B3, for which, in experiment [2], the “Maximal Downregulation (% CD33 remaining)” value stood at 17.1% and the “Receptor downregulation (EC50)” value amounted to 0.0463 nM. Besides, in experiment [5], the off-rate (koff) amounted to 0.0002 s⁻¹ and the kon amounted to 658000 M⁻¹ s⁻¹. For the same molecule, in experiment [3], the “Fold affinity improvement” value is 8.96 fold and the Kd turned out to be 0.304 nM.

B4: AB-63.10 (antibody, V domains shown)
VH: QVQLVQSGAEVKKPGASVKVSCKASGYTETDYNLHWVRQAPGQGLEWIGFIYPSNGITGYAQKFQGRVTMTVDTSTSTVYMELSSLRSEDTAVYYCARSDVDYFDYWGQGTLVTVSS
VL: DIVLTQSPDSLAVSLGERATINCRASQDVSTSTYSYMHWYQQKPGQPPKLLIKYASNLESGVPDRFSGSGSGTDFTLTISSLQAEDVAVYYCQHSWELPLTFGQGTKLEIK
In [6], B4 showed a koff of 0.000336 s⁻¹ and an on-rate (kon) of 721000 M⁻¹ s⁻¹. In experiment [2], the “Maximal Downregulation (% CD33 remaining)” value was found to be 21.2% and the “Receptor downregulation (EC50)” value is 0.0418 nM. Also, in experiment [3], the “Fold affinity improvement” value amounted to 5.84 fold and binding was put at a Kd of 0.466 nM.

B5: AB-63.12 (antibody, V domains shown)
VH: QVQLVQSGAEVKKPGASVKVSCKASGYTFTDYNFHWVRQAPGQGLEWIGFIYPSNGITGYAQKFTGRVTMTVDTSTSTVYMELSSLRSEDTAVYYCARSTVDYFDDWGQGTLVTVSS
VL: DIVLTQSPDSLAVSLGERATINCRASQDVSTSTYSYMHWYQQKPGQPPKLLIKYASNVESGVPDRFSGSGSGTDFTLTISSLQAEDVAVYYCQHSWAIPLTFGQGTKLEIK
Turning to B5, in [2], the “Maximal Downregulation (% CD33 remaining)” value came to 27.5% and the “Receptor downregulation (EC50)” value came out at 0.035 nM. In [3], the “Fold affinity improvement” value came to 9.84 fold and the dissociation constant Kd was found to be 0.277 nM. In [7], this molecule showed an off-rate constant (koff) of 0.0002 s⁻¹ and an on-rate (kon) of 723000 M⁻¹ s⁻¹.

B6: AB-63.11 (antibody, V domains shown)
VH: QVQLVQSGAEVKKPGASVKVSCKASGYTFTDYNFHWVRQAPGQGLEWIGFIYPANGITGYAQKDQGRVTMTVDTSTSTVYMELSSLRSEDTAVYYCARSDVDYFDYWGQGTLVTVSS
VL: DIVLTQSPDSLAVSLGERATINCRASQDVSTSTYSYMHWYQQKPGQPPKLLIKYASNLESGVPDRFSGSGSGTDFTLTISSLQAEDVAVYYCQHSWEIPLTFGQGTKLEIK
In experiment [8], B6 gave a koff of 0.000322 s⁻¹ and an on-rate constant (kon) of 839000 M⁻¹ s⁻¹. Besides, in experiment [2], the “Maximal Downregulation (% CD33 remaining)” value was determined as 23% and the “Receptor downregulation (EC50)” value came to 0.044 nM. For the same molecule, in [3], the “Fold affinity improvement” value was 7.09 fold and the dissociation constant (Kd) came to 0.384 nM.

B7: AB-63.7 (antibody, V domains shown)
VH: QVQLVQSGAEVKKPGASVKVSCKASGYTFTDYNLHWVRQAPGQGLEWIGFIYPSNGITGYAQKFQGRVTMTVDTSTSTVYMELSSLRSEDTAVYYCARSTVDYFDYWGQGTLVTVSS
VL: DIVLTQSPDSLAVSLGERATINCRASQDVSTSTYSYMHWYQQKPGQPPKLLIKYAFNLESGVPDRFSGSGSGTDFTLTISSLQAEDVAVYYCQHSWEIPLEFGQGTKLEIK
For the molecule B7, in experiment [2], the “Maximal Downregulation (% CD33 remaining)” value was 18.4% and the “Receptor downregulation (EC50)” value stood at 0.0416 nM. Also, in experiment [9], the koff is 0.000546 s⁻¹ and the kon was 596000 M⁻¹ s⁻¹. Further, in experiment [3], the “Fold affinity improvement” value was 2.97 fold and binding was put at a Kd of 0.917 nM.

B8: AB-63.9 (antibody, V domains shown)
VH: QVQLVQSGAEVKKPGASVKVSCKASGYAFTDYNLHWVRQAPGQGLEWIGFIYPSNGITGYAQKFQGRVTMTVDTSTSTVYMELSSLRSEDTAVYYCARSDVDYFDYWGQGTLVTVSS
VL: DIVLTQSPDSLAVSLGERATINCRASQDVSTSTYSYMHWYQQKPGQPPKLLIKYASYLESGVPDRFSGSGSGTDFTLTISSLQAEDVAVYYCEHSWEIPLTFGQGTKLEIK
In [10], B8 had a dissociation rate constant (koff) of 0.0002 s⁻¹ and a kon of 738000 M⁻¹ s⁻¹. Also, in experiment [2], the “Maximal Downregulation (% CD33 remaining)” value turned out to be 20.1% and the “Receptor downregulation (EC50)” value stood at 0.0407 nM. For the same molecule, in experiment [3], the “Fold affinity improvement” value was 10.1 fold and binding was characterised by a dissociation constant (Kd) of 0.271 nM.

B9: AB-63.5 (antibody, V domains shown)
VH: QVQLVQSGAEVKKPGASVKVSCKASGYTFTDYNNHWVRQAPGQGLEWIGFIYPSNGITGYAQKFQGRVTMTVDTSTSTVYMELSSLRSEDTAVYYCARSDVDYFDYWGQGTLVTVSS
VL: DIVLTQSPDSLAVSLGERATINCRASQSVSTSTYSYMHWYQQKPGQPPKLLIKYASNLESGVPDRFSGSGSGTDFTLTISSLQAEDVAVYYCQHSWEIPLTFGQGTKLEIK
For the molecule B9, in experiment [2], the “Maximal Downregulation (% CD33 remaining)” value was 16.5% and the “Receptor downregulation (EC50)” value turned out to be 0.0401 nM. In experiment [3], the “Fold affinity improvement” value amounted to 4.4 fold and the Kd was 0.619 nM. Besides, in experiment [11], the koff came out at 0.000524 s⁻¹ and the kon was determined as 847000 M⁻¹ s⁻¹.

B10: AB-63.13 (antibody, V domains shown)
VH: QVQLVQSGAEVKKPGASVKVSCKASGYTFTDYNLHWVRQAPGQGLEWIGFIYPSNGIRGYAQKFQGRVTMTVDTSTSTVYMELSSLRSEDTAVYYCARSDVDYFDYWGQGTLVTVSS
VL: DIVLTQSPDSLAVSLGERATINCRASQSVSTSTYSYMHWYQQKPGQPPKLLIKYASNLESGVPDRFSGSGSGTDFTLTISSLQAEDVAVYYCQHSEEIPLTFGQGTKLEIK
Turning to B10, in [2], the “Maximal Downregulation (% CD33 remaining)” value amounted to 25.5% and the “Receptor downregulation (EC50)” value is 0.0448 nM. In experiment [12], this molecule had a koff of 0.00023 s⁻¹ and a kon of 1.02e+06 M⁻¹ s⁻¹. In addition, in experiment [3], the “Fold affinity improvement” value was determined as 12.1 fold and the Kd was found to be 0.225 nM.

For orientation: koff means the rate constant with which the complex falls apart. A low value points to a long-lived complex. Broadly, the kon is the second-order rate constant of association. Lower therefore signals slow association. What is called Kd is the constant that tells how readily two partners part at equilibrium.
